{"source": "the DeepSol protein solubility set", "data": [{"assay": "soluble on expression in E. coli; label from the status in PepcDB or PDB records", "values": [{"sequence": "MSLGAIVEVITIKNYSLKSENYEAEIDIPKIRGLKDKNLEQRLNSSFMEDGKRLYHQFQERMEKIQSSKNKGYKSLSLSYSVKNNSKKFLSIEMTKNEIEASSYVSKVHYTIDKKRQIVLTLPMLFKDDKYIKVISDNIKEQMREQMKKDSTKSYFIDQKKDLPVEDFKTINKYQDFYFNKNEDLVICFDEYEVAPGYMGAVEFVIPYKVIKDEGHHHHHH", "soluble on expression in E. coli": "soluble"}, {"sequence": "MSLGCDSILSIDIGTTRIKAGLVDCNTLEITGRGSVSTPVSYPRKGWSEQDPEELWQAIVRASSAALEGFEASRVSGVIFSTYLAGVVLLDRDNYELTPIITWLDERAHGLPRELFSGVLKVSGYNLLHLVDLLRLTGGAPSKTGKDPLSKMVWLRENKPDLFTKAHTIGTLKTWVLAKTAEARLVSPDDAHLTWLADTRGGRAVWSPRLARRYGIPLEKLPGIAGPTDVAGGLVSSAARDLGLPQGIPVIVGAGDIASSAVGSGALAAGEYHIYVGTSSWIGVHSTRRLLDVRHYIGSLLSAKPGEYLVIGEQEIAGGMIDWILDVTGMDYRAVEDIHSIPPGSEGLIATPWLYGERTPIDDPHAKGVLVGLTLRHTKKHLVRAAVEGVALNIAWAMEHMTRLAGKPKLVRGVGGGFRLRTLAKVIASALNATIETVSQPEMAGVRGAGALAAAALKGSSIESEAGKIPVSWRAEADSNASKAYKDLLQIYQEIYSRLKSVFRRLSEGHHHHHH", "soluble on expression in E. coli": "not soluble"}, {"sequence": "MSLGEDSEGSGTSGISPGGNSVSEEVLKHRSMVEKYAKESDILDYVPILLAIIQVESGGTMEDVMQSSESAGLPPNSLSTEASIKQGCIYFASLVKSSKELGCDQDSIIQAYNYGGGYLNYVAKNGKKHSFTLAESFSKEKSGGQKVDYPNPIAIKENGGWRYNYGNMFYCLLVKQYLTTTQFDDKTVQGIFDEAFKYEGTAYVFGGSSPATGFDCSGLTQWCYAKVGLKLPRVAQDQYDVMTHIDLKDAKPGDLIFFHSTYDAGTYVTHVGIYAGENRMFHAGNPVGWTNLTESYWQQHLIGAGRYNEGHHHHHH", "soluble on expression in E. coli": "soluble"}, {"sequence": "MSLGEKGQAEIIKSLTEQLDQVQSLDDDRIIRRYMEMINATLRTNYYQLDEHKQNKPWLSLKMKPSEIPEIPAPVPAFEIFVYAPDIEGVHLRGGKVARGGLRWSDRQEDFRTEILGLVKAQQVKNTVIVPVGAKGGFVCKKQYLYTTRDEIFAEGQRCYKRFIRALLDVTDNIIEGQVVPPKNVVRHDEDDPYLVVAADKGTATFSDLANSVSAEYQFWLGDAFASGGSNGYDHKAMGITAKGGWESVKRHFREMGIDCQTTDFTAIGIGDMAGDVFGNGMLLSKHIRLLAAFNHIHIFIDPTPDSASSWEERNRLFNLPRSSWEDYNPKLISKGGGVFSRKAKAITLTPEMQKMLNTKKTTLAPNELIKMILKMEVDLLWNGGIGTYVKSSIETHTDVGDRANDGLRVDGREVNAKIIGEGGNLGMTQRGRIEFALKGGRVNTDFVDNVGGVDCSDNEVNIKIFLNGLVANGDLTLKQRNQILESMKDEVGSIVIEDAYGQSESISVTEAQGEGHHHHHH", "soluble on expression in E. coli": "not soluble"}, {"sequence": "MSLGFHEFSSPYDWSRIASYKRTAKAAFGGMVDLSVGSPVDPVPDSVRKALAVSSNDPNAYGYPVTAGTADLRDAIHEWFAAARNVDLRAIGADAVPTVGSKEGVALMASLLHFGEGDVVVQPKVSYPTYEIGTQLAGAQTLKVDDVADADSWKDVPGVKAVWVNSPCNPTGEVLSAEQMAGIVRAARAIGAVVLSDECYALMQWEDDVAEADADTLASTPCALRADVCGGSAEGVLVLYSLSKQSNMAGYRTALIAGDQSLIGPMAAYRKQIGQIIPGPVQAAMAAGLRDFDAVKTQHSRYQERLGMLVSALRAYGYCTDMPQGALYVWVKAKSGDCWEDLRQLAEIGIVASPGEFYGAPEYLRFSATASDAAIASAAERLAREGHHHHHH", "soluble on expression in E. coli": "soluble"}, {"sequence": "MSLGGTMVFRPVDVPGGAVFADQKITLGGGSPDRAFIENAHPDYLSGSFAEKNAWRYYIAKYELTAAQYAAIAGPCPDASKMDLWLPKVGITPGEATVAAESYSAWLFANARKSLPGDGKAPGFVRLPTEAEWEYAARGGAKVGPSDFDARHPPMDGPESGAIWYDGPESADKELQLVGLLAANPLGLHDMLGNAAELVQDLFRLNRVGRPHGRAGAFVKRGGDYRTPLAEIHSGLRQEFDLFDAKGLRREATTGTRFVLAAAALPSRDRLEALRQGWTALTEQSHSPLAEQQSDPRAELKTLSEFTSQLDFPEKAEVKRRLLNLAGVIDANIASRNEERDRAAREMLRVAVFAAGQLPTALDNAERCGKLMALNAAQYKERCDRVQADSKFDSQYYLDHVTRMLAEFPVPILEGQLGTLGSDLHAQGMLDAEGRVDHVFSDLKTLQAKGATAHKGILGGWKGREGHHHHHH", "soluble on expression in E. coli": "not soluble"}, {"sequence": "MSLGKGVRDPGSDGSLRRKELAMIKVEDMMTRHPHTLLRTHTLNDAKHLMEALDIRHVPIVDANKKLLGIVSQRDLLAAQESSLQRSAQGDSLAFETPLFEVMHTDVTSVAPQAGLKESAIYMQKHKIGCLPVVAKDVLVGIITDSDFVTIAINLLELQEESEPDELDEEQEGGSHHHHHH", "soluble on expression in E. coli": "soluble"}, {"sequence": "MSLGKLIVPILKSPSHLGHSSSRVNRLYNEDKYSANLLQVKESQIFNFSIFDGHGGDQCSTYLAENLSLALEDLDQLVENDNDRQELFKKYAKNVGGYWKRWYKHRDNTVANWEKERIKLKNFLSDDLATRVPLAFLNADYNFFSKEQKSGSTCTSAMIETIYSKPGTFQPFFENYYFNRHTISKLSIGHLGDTRAIVADKNGLAHTLTTDHHPLNPIEAKRLRKYAANFFMTDSFGEERFVALANTRAFGDVDYKEVGVTAEPDFNQYIIGDLDAIKQFLTPDEIEKYTIGGLGGDESFLILCSDGVTNIMTDQEIADIVLTHVNLKGQTVATPQYCAEQVIKFVEFVGGDDNATCLVIRLNGWGNEGHHHHHH", "soluble on expression in E. coli": "not soluble"}, {"sequence": "MSLGREKGLSTFLFLLLFSISLHAQRQDILLNNNWNFRFSHQVQGDTRRVDLPHTWNAQDALAGKIDYKRGIGNYEKALYIRPEWKGKRLFLRFDGVNSIADVFINRKHIGEHRGGYGAFIFEITDLVKYGEKNSVLVRANNGEQLDIMPLVGDFNFYGGIYRDVHLLITDETCISPLDYASPGVYLVQEVVSPQEAKVCAKVNLSNRAADGTAELQVLVTDGTKVICKESRNVSLKQGADILEQLPLLIQKPRLWNGCEDPFMYQVSISLHKDGKQIDSVTQPLGLRYYHTDPDKGFFLNGKHLPLHGVCRHQDRAEVGNALRPQHHEEDVALMREMGVNAIRLAHYPQATYMYDLMDKHGIVTWAEIPFVGPGGYADKGFVDQASFRENGKQQLIELIRQHYNHPSICFWGLFNELKEVGDNPVEYVKELNALAKQEDPTRPTTSASNQDGNLNFITENIAWNRYDGWYGSTPKTLATFLDRTHKKHPELRIGISEYGAGASIYHQQDSLKQPSASGWWHPENWQTYYHMENWKIIAERPFVWGTFVWNMFDFGAAHRTEGDRPGINDKGLVTFDRKVRKDAFYFYKANWNKQEPMIYLAEKRCRLRYQPEQTFMAFTTAPEAELFVNGVSCGKQKADTYSTVVWKNVKLTSGENIIRVTTPGKKPLTDEVTVEYKEDREGHHHHHH", "soluble on expression in E. coli": "not soluble"}, {"sequence": "MSLGRKIKKETMIFPRYHQLRAVRELEDAARTEGPGHNYLVEHSAGSGKSNTIGWLAHRLASLHNESDHKVFDSVIVITDRRVLDRQLQDTIYQFEHRQGVVQKIDEDSRQLAEALTNSVPIIISTLQKFPFVARQLARMAEERREGADGILPTRRCAVIIDEAHSSQSGETATDLKEVLGGHVLREEAARYAVDEGVDNLDELYRSMAKRGRQTNLSFFAFTATPKHKTLAVFGRDEAGKAGQPFHRYTMSQAIEEGFIMDVLKNYTTYATYYKLVKASEDDPNVERKQAAKALARFMRLHPYNIAQKTEVMVEHFNAVTRHKVGGKAKAMVVTGSRLEAVRYKLAFDAYIREKGYSWIKTLVAFSGEVVDDELPGKTWTEVGMNGGIKEGVLPEKFDSSEYQVLLVAEKYQTGYDQPLLHTMYVDKRLAGIQAVQTLSRLNRMHPLKEDTFVLDFVNDRQEIKEAFKQYHEGAEMGEEADPNQMYAIKAELDASGIYLLEEMQRFIGIYFKPKQRQSPADHQAMNAALDPAVDRFRAVQEEDEEQAELWRGKLSAFRNLYAFLSQVAPYQDSDLERLYTFLRFLSPKLPKRTTGQRYSFDDEVRLEYYRLQKISEGSISLRDGKAELLDGPGEVGSGARHDEDVPLSSLIDVINERFGTDFTDADQLFFDQIIEAAMEDGSLLEAAAVNPEEKFALLFAGLLETLFIERMEQNEDIFARFMNERDFQSLVSKWISGKVYARLREGHHHHHH", "soluble on expression in E. coli": "not soluble"}, {"sequence": "MSLGRKQQYGTLASIAAKLGISRTTVSNAYNRPEQLSAELRQRILDTAEDMGYLGPDPVARSLRTRRAGAIGVLLTEDLTYAFEDMASVDFLAGVAQAAGDTQLTLIPASPASSVDHVSAQQLVNNAAVDGVVIYSVAKGDPHIDAIRARGLPAVIADQPAREEGMPFIAPNNRKAIAPAAQALIDAGHRKIGILSIRLDRANNDGEVTRERLENAQYQVQRDRVRGAMEVFIEAGIDPGTVPIMECWINNRQHNFEVAKELLETHPDLTAVLCTVDALAFGVLEYLKSVGKSAPADLSLTGFDGTHMALARDLTTVIQPNKLKGFKAGETLLKMIDKEYVEPEVELETSFHPGSTVAEGHHHHHH", "soluble on expression in E. coli": "soluble"}, {"sequence": "MSLGRNPPPAIGQFWHVTDLHLDPTYHITDDHTKVCASSKGANASNPGPFGDVLCDSPYQLILSAFDFIKNSGQEASFMIWTGDSPPHVPVPELSTDTVINVITNMTTTIQSLFPNLQVFPALGNHDYWPQDQLPVVTSKVYNAVANLWKPWLDEEAISTLRKGGFYSQKVTTNPNLRIISLNTNLYYGPNIMTLNKTDPANQFEWLESTLNNSQQNKEKVYIIAHVPVGYLPSSQNITAMREYYNEKLIDIFQKYSDVIAGQFYGHTHRDSIMVLSDKKGSPVNSLFVAPAVTPVKSVLEKQTNNPGIRLFQYDPRDYKLLDMLQYYLNLTEANLKGESIWKLEYILTQTYDIEDLQPESLYGLAKQFTILDSKQFIKYYNYFFVSYDSSVTCDKTCKAFQICAIMNLDNISYADCLKQLYIKHNYEGHHHHHH", "soluble on expression in E. coli": "soluble"}, {"sequence": "MSLGSERWITVQLVGEIMGTSFERGISQYPNVNDEVHLVTESDLEAIHGVEEQGQVVVGRLASADGIPVKLDLDKMVTRHSAVLGSTGSGKSTTVASLLRSIVSGADGSDAGFPSSRILMLDIHGEYSHALSDVAKVFRISPEANQTQLHIPFWALDPNELLCFLMGRLDDKPLTAILDKVYEYKHDQAVAHPRAGLNVTSMTSDTPVPFSLKKLWLELLEPEVKTWEDTARSQPALLEAGNADNVTPPQYKPHGAGATPPFINQIGVLGIRRPLDQLRSRLLDKKYDFLLHPGDWEPDLDGNVTKDLDALLEEWLGHDKPITILDLSGVPSLVLEQLIGAILRILYEALFWGRDRSEGHHHHHH", "soluble on expression in E. coli": "soluble"}, {"sequence": "MSLGSSDLPAHALVGYLHASFANGSGYTRMADVPDSWDVIDLAFGEPTSVTSGDIRFERCPVAECPNVESDAEFKAAIKAKQAAGKKVLISIGGQNGQVQLTSTAARDKFVSSVSAIIDEYGLDGLDIDFEGHSLSLNADDTDFKNPKTPVIVNLVSAVKTLKAKYGDGFVLTMAPETFFVQLGYQYYGTGKWGGQDPRAGAYLPVIHALRDDLTLLHVQDYNSGSIMGLDNQYHSMGGADFHIAMTDMLLTGFPVAGDANNVFPPLRPDQVAIGMPASTQAGNGHVSPAEVTKALNCLTKKTDCGSYATHGTWPDLRGLMTWSINWDRYSNWEFQKNFDAYFGEGHHHHHH", "soluble on expression in E. coli": "soluble"}, {"sequence": "MSLGSVNRVYLARLSRMSVLGPLGESFGRVRDVVISISIVRQQPRVLGLVVDLATRRKIFIPILRVAAIEPHAVTLSTGNVSLHRFEQRPGEALALGQVLDTLVKVNDPALPELAGVDVVVTDLGVEQTRSRDWMVTRVAVRTQRRLRRRCPVHVVDWHNVAGLTPSALAMPGQDVAQLLDQFEGWKAVDVADAIRGLPPKRRHEVFKALHDKRLADVLQELPELDQAEVLSQLGTERAADVLEEMDPDDAADLLAVLNPTEAELLLTRMDPGDSGQVRRLLTHSPDTAGGLMTSDPVVLTPDTSIAEALARVRDPDLTPALASMVFVARPPTATPTGHYLGCVHLQRLLRDPPAELVGGVVDTDLLTLTPETPLAAVTRYFAAYNLVCGPVVDDENHLLGAVTVDDLLDHLLPHDWRVDMPELDPSGAPDRPGGPREGHHHHHH", "soluble on expression in E. coli": "soluble"}]}]}
